Molecular target: the molecule itself
Experiment: cryo-EM structure; single-particle cryo-EM of SMA2000-purified YnaI, Titan Krios 300 kV; 3D classification without symmetry, final refinement with C7 symmetry, 2.4 Å; NCMN Buffer E (40 mM HEPES pH 7.8, 100 mM NaCl, 0.1 mM TCEP)

B1: low-conductance mechanosensitive channel-like (YnaI), wild type (natural protein, Escherichia coli, UniProt P0AEB5 1-343, looked up)
chain: MIAELFTNNALNLVIIFGSCAALILMSFWFRRGNRKRKGFLFHAVQFLIYTIIISAVGSIINYVIENYKLKFITPGVIDFICTSLIAVILTIKLFLLINQFEKQQIKKGRDITSARIMSRIIKITIIVVLVLLYGEHFGMSLSGLLTFGGIGGLAVGMAGKDILSNFFSGIMLYFDRPFSIGDWIRSPDRNIEGTVAEIGWRITKITTFDNRPLYVPNSLFSSISVENPGRMTNRRITTTIGLRYEDAAKVGVIVEAVREMLKNHPAIDQRQTLLVYFNQFADSSLNIMVYCFTKTTVWAEWLAAQQDVYLKIIDIVQSHGADFAFPSQTLYMDNITPPEQGR
notes: YnaI, MscS-like mechanosensitive channel of Escherichia coli, 343 aa, wild type, full length; Homoheptamer in SMA2000 native lipid particles; Only TM4, TM5 and the cytoplasmic domain are resolved in the map; seven phosphatidylethanolamine molecules were modelled; Cloned in pRSFDuet-1; also called mechanosensitive-like YnaI channel; SMA2000-YnaI; source: E. coli BL21 (DE3) pLysS, extracted from …
  stoichiometry N: 7
